Assay results from patent US20220168396A1, “MULTI-RECEPTOR AGONIST AND MEDICAL USE THEREOF” (published 2022).
Numbered stars: 1 amine (or outer) side, 2 acyl side, 3 side chain; on linkers, the order of the positions; unused ones are H or OH. Square brackets hold non-standard residues; d marks the D form. Side chains are listed from the residue outwards. Ends that are not written are not given here. γGlu = O=C(O)[C@H](CCC(=O)[*:2])N[*:1]; AEEA = NCCOCCOCC(=O)O; Aib = CC(C)(N)C(=O)O

B1: Compound No. 2 (peptide)
peptide: Y[Aib]EGTFTSDVSSYLEEEAAKEFIAWLVRGGPSSGAPPPSK-NH2
modifications: N-terminus assumed
SMILES: CC[C@H](C)[C@H](NC(=O)[C@H](Cc1ccccc1)NC(=O)[C@H](CCC(=O)O)NC(=O)[C@H](CCCCN)NC(=O)[C@H](C)NC(=O)[C@H](C)NC(=O)[C@H](CCC(=O)O)NC(=O)[C@H](CCC(=O)O)NC(=O)[C@H](CCC(=O)O)NC(=O)[C@H](CC(C)C)NC(=O)[C@H](Cc1ccc(O)cc1)NC(=O)[C@H](CO)NC(=O)[C@H](CO)NC(=O)[C@@H](NC(=O)[C@H](CC(=O)O)NC(=O)[C@H](CO)NC(=O)[C@@H](NC(=O)[C@H](Cc1ccccc1)NC(=O)[C@@H](NC(=O)CNC(=O)[C@H](CCC(=O)O)NC(=O)C(C)(C)NC(=O)[C@@H](N)Cc1ccc(O)cc1)[C@@H](C)O)[C@@H](C)O)C(C)C)C(=O)N[C@@H](C)C(=O)N[C@@H](Cc1c[nH]c2ccccc12)C(=O)N[C@@H](CC(C)C)C(=O)N[C@H](C(=O)N[C@@H](CCCNC(=N)N)C(=O)NCC(=O)NCC(=O)N1CCC[C@H]1C(=O)N[C@@H](CO)C(=O)N[C@@H](CO)C(=O)NCC(=O)N[C@@H](C)C(=O)N1CCC[C@H]1C(=O)N1CCC[C@H]1C(=O)N1CCC[C@H]1C(=O)N[C@@H](CO)C(=O)N[C@@H](CCCCN)C(N)=O)C(C)C
B2: Compound No. 72 (peptide)
peptide: Y[Aib]EGTFTSDYSIYLEEIAAKEFVNWLLAGGPSSGAPPPS-NH2
modifications: N-terminus assumed
SMILES: CC[C@H](C)[C@H](NC(=O)[C@H](CCC(=O)O)NC(=O)[C@H](CCC(=O)O)NC(=O)[C@H](CC(C)C)NC(=O)[C@H](Cc1ccc(O)cc1)NC(=O)[C@@H](NC(=O)[C@H](CO)NC(=O)[C@H](Cc1ccc(O)cc1)NC(=O)[C@H](CC(=O)O)NC(=O)[C@H](CO)NC(=O)[C@@H](NC(=O)[C@H](Cc1ccccc1)NC(=O)[C@@H](NC(=O)CNC(=O)[C@H](CCC(=O)O)NC(=O)C(C)(C)NC(=O)[C@@H](N)Cc1ccc(O)cc1)[C@@H](C)O)[C@@H](C)O)[C@@H](C)CC)C(=O)N[C@@H](C)C(=O)N[C@@H](C)C(=O)N[C@@H](CCCCN)C(=O)N[C@@H](CCC(=O)O)C(=O)N[C@@H](Cc1ccccc1)C(=O)N[C@H](C(=O)N[C@@H](CC(N)=O)C(=O)N[C@@H](Cc1c[nH]c2ccccc12)C(=O)N[C@@H](CC(C)C)C(=O)N[C@@H](CC(C)C)C(=O)N[C@@H](C)C(=O)NCC(=O)NCC(=O)N1CCC[C@H]1C(=O)N[C@@H](CO)C(=O)N[C@@H](CO)C(=O)NCC(=O)N[C@@H](C)C(=O)N1CCC[C@H]1C(=O)N1CCC[C@H]1C(=O)N1CCC[C@H]1C(=O)N[C@@H](CO)C(N)=O)C(C)C
B3: Compound No. 78 (peptide)
peptide: Y[Aib]EGTFTSDYSIYLEKIAAQEFVQWLLAGGPSSGAPPPS-NH2
modifications: N-terminus assumed
SMILES: CC[C@H](C)[C@H](NC(=O)[C@H](CCCCN)NC(=O)[C@H](CCC(=O)O)NC(=O)[C@H](CC(C)C)NC(=O)[C@H](Cc1ccc(O)cc1)NC(=O)[C@@H](NC(=O)[C@H](CO)NC(=O)[C@H](Cc1ccc(O)cc1)NC(=O)[C@H](CC(=O)O)NC(=O)[C@H](CO)NC(=O)[C@@H](NC(=O)[C@H](Cc1ccccc1)NC(=O)[C@@H](NC(=O)CNC(=O)[C@H](CCC(=O)O)NC(=O)C(C)(C)NC(=O)[C@@H](N)Cc1ccc(O)cc1)[C@@H](C)O)[C@@H](C)O)[C@@H](C)CC)C(=O)N[C@@H](C)C(=O)N[C@@H](C)C(=O)N[C@@H](CCC(N)=O)C(=O)N[C@@H](CCC(=O)O)C(=O)N[C@@H](Cc1ccccc1)C(=O)N[C@H](C(=O)N[C@@H](CCC(N)=O)C(=O)N[C@@H](Cc1c[nH]c2ccccc12)C(=O)N[C@@H](CC(C)C)C(=O)N[C@@H](CC(C)C)C(=O)N[C@@H](C)C(=O)NCC(=O)NCC(=O)N1CCC[C@H]1C(=O)N[C@@H](CO)C(=O)N[C@@H](CO)C(=O)NCC(=O)N[C@@H](C)C(=O)N1CCC[C@H]1C(=O)N1CCC[C@H]1C(=O)N1CCC[C@H]1C(=O)N[C@@H](CO)C(N)=O)C(C)C
B4: Compound No. 80 (peptide)
peptide: Y[Aib]EGTFTSDYSIYLEKIAAQEFVNWLIAGGPSSGAPPPS-NH2
modifications: N-terminus assumed
SMILES: CC[C@H](C)[C@H](NC(=O)[C@H](CCCCN)NC(=O)[C@H](CCC(=O)O)NC(=O)[C@H](CC(C)C)NC(=O)[C@H](Cc1ccc(O)cc1)NC(=O)[C@@H](NC(=O)[C@H](CO)NC(=O)[C@H](Cc1ccc(O)cc1)NC(=O)[C@H](CC(=O)O)NC(=O)[C@H](CO)NC(=O)[C@@H](NC(=O)[C@H](Cc1ccccc1)NC(=O)[C@@H](NC(=O)CNC(=O)[C@H](CCC(=O)O)NC(=O)C(C)(C)NC(=O)[C@@H](N)Cc1ccc(O)cc1)[C@@H](C)O)[C@@H](C)O)[C@@H](C)CC)C(=O)N[C@@H](C)C(=O)N[C@@H](C)C(=O)N[C@@H](CCC(N)=O)C(=O)N[C@@H](CCC(=O)O)C(=O)N[C@@H](Cc1ccccc1)C(=O)N[C@H](C(=O)N[C@@H](CC(N)=O)C(=O)N[C@@H](Cc1c[nH]c2ccccc12)C(=O)N[C@@H](CC(C)C)C(=O)N[C@H](C(=O)N[C@@H](C)C(=O)NCC(=O)NCC(=O)N1CCC[C@H]1C(=O)N[C@@H](CO)C(=O)N[C@@H](CO)C(=O)NCC(=O)N[C@@H](C)C(=O)N1CCC[C@H]1C(=O)N1CCC[C@H]1C(=O)N1CCC[C@H]1C(=O)N[C@@H](CO)C(N)=O)[C@@H](C)CC)C(C)C
B5: Compound No. 83 (peptide)
peptide: Y[Aib]EGTFTSDYSIYLEKIAAQEFVNWLIAGGPSSGAPPPSK([AEEA-AEEA-γGlu-C20‑OH])-NH2
B6: Compound No. 25 (peptide)
peptide: H-Y[Aib]EGTFTSDYSIYLEKEAAKEFVNWLLAGGPSSGAPPPSK-NH2
modifications: not fully specified (residue 40); printed as H-YAibEGTFTSDYSIYLEKEAAKEFVNWLLAGGPSSGAPPPSK / (OEG-OEG-yGlu-C18-OH)-NH2
B7: Compound No. 27 (peptide)
peptide: H-Y[Aib]EGTFTSDYSIYLEKEAAKEFVNWLLAGGPSSGAPPPS-NH2
modifications: not fully specified (residue 20); printed as H-YAibEGTFTSDYSIYLEKEAAK(OEG-OEG-yGlu-C18-OH)EFVNWLLAG / GPSSGAPPPS-NH2
B8: Compound No. 28 (peptide)
peptide: H-Y[Aib]EGTFTSDYSIYLEKIAAQEFVNWLLAGGPSSGAPPPSK-NH2
modifications: not fully specified (residue 40); printed as H-YAibEGTFTSDYSIYLEKIAAQEFVNWLLAGGPSSGAPPPSK / (OEG-OEG-yGlu-C18-OH)-NH2
B9: Compound No. 29 (peptide)
peptide: H-Y[Aib]EGTFTSDYSIYLEKIAAQEFVNWLLAGKPSSGAPPPS-NH2
modifications: not fully specified (residue 30); printed as H-YAibEGTFTSDYSIYLEKIAAQEFVNWLLAGK(OEG-OEG-yGlu-C18-OH) / PSSGAPPPS-NH2
B10: Compound No. 30 (peptide)
peptide: H-Y[Aib]EGTFTSDYSIYLEKIAAKEFVNWLLAGGPSSGAPPPS-NH2
modifications: not fully specified (residue 20); printed as H-YAibEGTFTSDYSIYLEKIAAK(OEG-OEG-yGlu-C18-OH)EFVNWLLAG / GPSSGAPPPS-NH2
B11: Compound No. 60 (peptide)
peptide: Y[Aib]EGTFTSDYSIYLDKIAAK([AEEA-AEEA-γGlu-C18‑OH])EFVNWLLAGGPSSGAPPPS-NH2
B12: Compound No. 62 (peptide)
peptide: Y[Aib]EGTFTSDYSIYLDKIAAQEFVNWLLAGGPSSGAPPPSK([AEEA-AEEA-γGlu-C18‑OH])-NH2
B13: Compound No. 74 (peptide)
peptide: Y[Aib]EGTFTSDYSIYLEKIAAQEFVNWLLAGGPSSGAPPPSK([AEEA-AEEA-γGlu-C20‑OH])-NH2
B14: Compound No. 75 (peptide)
peptide: Y[Aib]EGTFTSDYSIYLEKIAAK([AEEA-AEEA-γGlu-C20‑OH])EFVNWLLAGGPSSGAPPPS-NH2

molecular target: T1, human glucagon-like peptide-1 receptor (human, UniProt P43220); test: cell-based or functional assay

Binder | Activity for human GLP-1R (EC50 nM), cAMP HTRF
B1 | 0.017 nM
B2 | 0.017 nM
B3 | 0.008 nM
B4 | 0.008 nM

molecular target: T2, human glucose-dependent insulinotropic peptide receptor (human, UniProt P48546); test: cell-based or functional assay
T2 sequence: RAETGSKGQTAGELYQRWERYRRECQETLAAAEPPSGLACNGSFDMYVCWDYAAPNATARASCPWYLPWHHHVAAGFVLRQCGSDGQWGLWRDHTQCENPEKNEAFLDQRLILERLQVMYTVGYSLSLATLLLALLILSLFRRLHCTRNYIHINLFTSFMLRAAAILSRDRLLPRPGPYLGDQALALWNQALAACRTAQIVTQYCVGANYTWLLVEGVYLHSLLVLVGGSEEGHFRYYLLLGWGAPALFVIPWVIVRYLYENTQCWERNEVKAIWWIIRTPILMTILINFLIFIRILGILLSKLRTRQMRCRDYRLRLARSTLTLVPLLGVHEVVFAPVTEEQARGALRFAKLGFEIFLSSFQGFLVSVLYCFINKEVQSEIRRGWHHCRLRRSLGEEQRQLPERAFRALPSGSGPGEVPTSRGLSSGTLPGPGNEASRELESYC

Binder | Activity for human GIPR (EC50 nM), cAMP HTRF
B1 | 3.5 nM
B2 | 0.03 nM
B3 | 0.012 nM
B4 | 0.008 nM

molecular target: T1, human glucagon-like peptide-1 receptor; test: cell-based or functional assay; remark: another data set of the same source

Binder | Activity for human GLP-1R (EC50 nM), cAMP HTRF
B5 | 0.028 nM
B6 | 0.031 nM
B7 | 0.12 nM
B8 | 0.074 nM
B9 | 0.24 nM
B10 | 0.058 nM
B11 | 0.2 nM
B12 | 0.32 nM
B13 | 0.068 nM
B14 | 0.2 nM

molecular target: T2, human glucose-dependent insulinotropic …; test: cell-based or functional assay; remark: another data set of the same source

Binder | Activity for human GIPR (EC50 nM), cAMP HTRF
B5 | 0.032 nM
B6 | 0.059 nM
B7 | 0.11 nM
B8 | 0.02 nM
B9 | 0.015 nM
B10 | 0.021 nM
B11 | 0.02 nM
B12 | 0.045 nM
B13 | 0.046 nM
B14 | 0.16 nM
